Results reported in patent US20260098095A1.

% of MAGE-A4 signal, Jurkat-NFAT; grey (>2%) (AGFG2) [%] | % of MAGE-A4 signal, Jurkat-NFAT; grey (>2%) (DPYSL2) [%] | % of MAGE-A4 signal, Jurkat-NFAT; grey (>2%) (TRANK1) [%] | Binder
13.3 | 5.19 | 7.67 | Molecule B (bispecific antibody, V domains shown) VH 1: YPQLVESGGGLVKPGGSLRLSCAARYPFTRLDMSWVRQAPGKGLEWVGSISPKGGSTYYNDNVLGRFTISRDNSKNTLYLQMNSLRAEDTAVYYCARDWGFFDNWGQGTLVTVSS VL 1: AIQMTQSPSSLSASVGDRVTITCRASQSISNYLAWYQQKPGKAPKLLIYNASHPEYDVPSRFSGSGSGTDFTLTISSLQPEDFATYYCQQYSSHPYTFGQGTKLEIK VH 2: not shown VL 2: QAVVTQEPSLTVSPGGTVTLTCGSSTGAVTTSNYANWVQEKPGQAFRGLIGGTNKRAPGTPARFSGSLLGGKAALTLSGAQPEDEAEYYCALWYSNLWVFGGGTKLTVL
86.5 | – | 4.56 | Molecule A (bispecific antibody, V domains shown) VH 1: YVQLVESGGGLVKPGGSLRLSCAAPLPFTGLDMSWVRQAPGKGLEWVGSISPKGGSTYYNDNVLGRFTISRDNSKNTLYLQMNSLRAEDTAVYYCARDWGFFDLWGQGTLVTVSS VL 1: AIQMTQSPSSLSASVGDRVTITCRASQSISNYLAWYQQKPGKAPKLLIYDANAHENDVPSRFSGSGSGTDFTLTISSLQPEDFATYYCQQYSSHPYTFGQGTKLEIK VH 2: not shown VL 2: QAVVTQEPSLTVSPGGTVTLTCGSSTGAVTTSNYANWVQEKPGQAFRGLIGGTNKRAPGTPARFSGSLLGGKAALTLSGAQPEDEAEYYCALWYSNLWVFGGGTKLTVL
